# According to the DeepSol protein solubility set:
# Test: soluble on expression in E. coli; label from the status in PepcDB or PDB records
row,Sequence,soluble on expression in E. coli
1,MSSPKKNFKKPQPKTENQKQALNEERIAELKKSRILGKNRPFKKMIYVDTKAQRKQKHENVAFLKTLQENKESDVPKKRRGRKPKHAPLKEKNNLKLFDILEGSLKSHTENDDTNKVISLLVEVWEKKNKKKDNNSLSNKDIVNVLSKFELPDDEIIFVLDELR,soluble
2,ADKNPGSENMTNTIGPHDRGGSSPIYNILNSYLTAYNGSHHLYDRMSFLCLSSQNTLNGACPSSDAPGTATIDGETNITLQFTEKRSLIKRELQIKGYKQFLFKNANCPSKLALNSSHFQCNREQASGATLSLYIPAGELNKLPFGGVWNAVLKLNVKRRYDTTYGTYTINITVNLTDKGNIQIWLPQFKSNARVDLNLRPTGGGTYIGRNSVDMCFYDGYSTNSSSLEIRFQDDNSKSDGKFYLKKINDDSKELVYTLSLLLAGKNLTPTNGQALNINTASLETNWNRITAVTMPEISVPVLCWPGRLQLDAKVKNPEAGQYMGNIKITFTPSSQTLDNKQVEKNITVTASVDPVIDLLQADGNALPSAVKLAYSPASKTFESYRVMTQVHTNDATKKVIVKLADTPQLTDVLNSTVQMPISVSWGGQVLSTTAKEFEAAALGYSASGVNGVSSSQELVISAAPSTAGTAPTAGNYSGVVSLVMTLGSDNKQVEKNITVTASVDPVIDLLLEHHHHHH,soluble
3,MVNQPLVSIIIPAYRAENTIAFTVRSVLAQTYDHWQVAIGVDDQVDYLQLLAEQGINDPRLKQVFTGGIGSGEAIARNKAVSICDGDILANLDADDAFASDRLEKLVPLAEKYGVAIDNTGVYNSELVLYKQPFPQRQALNFATAADILSPRIPFFPVFQRQLLGDGWTKVPFAADVLFNLELLSRTEKVAIHPEPLYRYYKRDNSITQSANAFETAEKAYLTILSLLDEGALTLTDAIRQAARQEFSENLALNKVFRRYMEEGRCQNLEQFLDMTNNGQKIEFVSNLNLEHHHHHH,soluble
4,MSYQVTTLQARKDMARARLGQIPLPRITHIAFGTGGHLPGDVLTPVKPSETATSLEQEVARFPIASAVLKNDTTVEYKVVIPKGALSGVVLTEQALIDQNGKVVAIKTFGAKKKEPEDEFTFTWEEDF,not soluble
5,RFSEVLSTPEYDNAKSPVTLALGHDIGGKPVITDLAKMPHLLVAGTTGSGKSVGVNAMILSILFKSGPEDAKLIMIDPKMLELSIYEGIPHLLCPVVTDMKDAANALRWSVAEMERRYKLMAKMGVRNLSGFNQKVKEAQDAGEPLADPLYKRESIHDEAPLLTKLPTIVVVVDEFADMMMIVGKKVEELIARIAQKARAAGIHLILATQRPSV,not soluble
6,MIVNAFYNEKGVGDTLLIETGEVTFENREWERRGDVARIFDRETKQVAGFNIFNSSKYFDITANGKVDLTEELVALMNQVIEKAGFEPEIVADLTPKFVVGYVESKEKHPNADKLNVCQINVGGEVLQIVCGAPNIDAGQKVVVAKIGAVMPSGLIIKPSNLRGEDSFGMVCAARELAIPNAPTEKGILVLEDSATPGEEFPVNFLEHHHHHH,not soluble
7,MRALLFTSVVLLALAFVEAKKQTITVKGTTICNKKRIQAEVTLWEKDTLDPDDKLASMQSNKEGEFSLTGSDDEITSISPYLIITHNCNVKKAGCKRVSEYLIPKEKIGGTYDMTYVTLDILSAKDKEKC,not soluble
8,MGSDKIHHHHHHMTRRGMEFYEKAQELVKGFDIFQNQYANPEEEKDEFSIASQHYDFLPPTITAFSERYPDYKNFRIFESTTVQILDEVAQGHSEIGIIYLNNQNKKGIMQRVEKLGLEIIELISFHTHIYLREGHPLAQKEELVMEDLADLPTVRFTQEKDEYLYYSENFVDTSASSQMFNVTDRATLNGILERTDAYATGSGFLDSDSVNGITVIRLKDNLDNRMVYVKREEVELSQAGTLFVEVMQEYFNQKRKS,not soluble
9,MKWKEQAIILGTRQYGETSVILEVMTRQHGRYMGVVKGGRSRRMAVLLQPGNFVEAEWWARLDEHLGLFRLEALDLHAARLILFPEALYALQLIVFHLHLLPERDPHPILYDILHLFMQSFDEPFINAELLVRFEMRFLEELGFGLDLSRCAATGRLEKLCYVSPKSGRAVCEEAGHPWREKLLNLPQFLVQRTVRPVDFSDIKNGFILTGFFLMRHVWEPRNIKQPSVRISLIQLFEQRFRMQASFVDLKTINRM,not soluble
